Results taken from US20110171312A1, “MODIFIED THERAPEUTIC PEPTIDES, METHODS OF THEIR PREPARATION AND USE” (Nektar Therapeutics, priority 2008, published 2011).
Where two headings read alike, the source gives them in different places.

Key:
beagle dogs [1] = test: PK/PD after IH (powder inhalation) dosing in dogs (Example 26); conditions: for Effect/mg Dosed: AUEC per mg of IH lung dose; for Effect (Glucose Suppression AUEC): lung dose 0.34, 0.6, 2 mg
Procedure: (§1) The compounds were prepared in accordance with Examples 16 and 18.
(§2) 6 Beagle dogs (˜7-10 kg) were anesthetized in both the IV and IH arms of this study for consistency. Dogs were then given 0.1 mg/kg acepromazine subcutaneously ˜15 minutes prior to 1-5% isoflurane mask induction. Once the appropriate plane of anesthesia was achieved, the pre-shaved neck of the dog was installed with an 18-20 G Abbocath intravenous catheter in the right or left jugular vein and pre-dose sampling was taken. This catheter was used for all blood samplings other than the later time points (16, 20 and 24 hour). Subsequent samples were taken from the cephalic veins.
The formulated control and test articles were delivered by inhalation (IH) via an endotracheal (ET) tube. Ventilator stroke volume was set empirically for each dog to achieve a Peak Mouth Pressure (PMP) of 20-25 cm H2O. A digital manometer (Dwyer Instruments, Michigan City, Ind.) was connected to the ET tube/“Y” connector to monitor PMP. Each blister pack (BP) was delivered with 2 full breathing cycles. No more than 3 BPs were administered during one apneic period. If required to achieve the target administered dose, a second apneic period was induced after an interval of 2 minutes of spontaneous breathing.
Total administered powder as well as estimated inhaled total lung dose were reported.
(§3) Whole blood was used for the glucose measurements. EDTA-anticoagulated plasma was used for compound quantitation assays.
(§4) Quantitation of test and control articles for PK analysis was made with a radio-immuno assay (RIA) conducted at Linco Research, St-Charles, Mo. […] This antiserum was used as the basis of an RIA assay which was then qualified with respect to accuracy, precision, sensitivity, and dilutional linearity. The working range of this assay was 0.15-5 ng/ml. Samples exceeding the upper boundary of this range were diluted in a pool of charcoal-stripped canine plasma.
To calculate the overall glucose suppression, glucose levels were normalized by the equation:
GlucoseSuppression(t)=PredoseGlucoseConcentration−Glucose(t)
The glucose suppression-time profiles were integrated using linear-trapezoidal rule to calculate the area under the effect curve (AUEC).

Sprague-Dawley rats [2] = test: Dose determination and PK/PD after intratracheal instillation (Example 25); assay type: in vivo, rat; conditions: intratracheal
Procedure: A spectrometric measurement of compound concentration was also made.
Intratracheal Instillation (IT) was conducted as follows.
Sample Collection was performed as follows.
The glucose monitoring was conducted as follows.
The experimental protocol was modified for the analysis of the acetylated compounds. This resulted from the intent to use LC/MS-MS for the quantitation of compound concentrations in plasma. This analytical technique requires a larger volume of plasma to permit concentration of the sample and achieve the requisite increase in sensitivity. […] The protocol was therefore modified to increase the number of animals by two-fold and split the samples between these two cohorts.
To explore the data further, the PK profiles after IT doses were deconvoluted using IV PK parameters using the Wagner Nelson deconvolution procedure, to generate the cumulative absorption profile (FIG. 32).

[3] = 14.3/(14.3 + 0.2) * 100%
Procedure: Concentrations of collected samples were determined using UV spectroscopy, while the integrity analysis of the collected protein was evaluated by HPLC.

beagle dogs [4] = test: PK/PD after IV dosing in dogs (Example 26); conditions: for CMAX: baseline corrected
Procedure: as §1, §2
The test and control articles were administered by bolus intravenous (IV) injection of a volume of 300 μl into the left cephalic vein using a 22 G 1 inch 1 mL tuberculin syringe.
as §3, §4

Sprague-Dawley rats [5] = conditions: rats, intravenous
Text: The first phase established a dose of the compound required to achieve a target blood glucose reduction. This target blood glucose reduction was chosen to be the minimum reduction that is clearly recognizable as different from the resting blood glucose concentration.
The second phase examined the pharmacokinetics/pharmacodynamics of the molecule when administered to rats at the selected dose over an observation time sufficient for the glucose to return to baseline.
These experiments were conducted on male adult Sprague-Dawley rats of approximately 0.30-0.40 kg. Animals were obtained pre-cannulated with a jugular vein catheter (JVC) for blood sampling and, in the case of IV administration, and additional femoral vein catheter (FVC).
Intravenous administration of compounds was made via a femoral catheter in a volume of 300 μl.
Sample Collection was performed as follows. Blood samples of approximately 0.50 mL were collected from the JVC using a 1 mL syringe at each time point. A new syringe was used for each time point along with precautions to prevent contamination and carry-over.
The glucose monitoring was conducted as follows. Approximately 20 μL of whole blood was touched to the end of the glucose test strip of 2 Glucometer Elite glucose monitors for a duplicate determination of blood glucose concentrations. If there was a discrepancy of greater than 5 mg/dl, a third reading was taken.
The sample for compound quantitation in plasma, which served as basis for the PK analysis, was collected and processed as follows. The volume of blood remaining after the glucose measurement (˜480 μL) was anticoagulated with K2 EDTA and centrifuged to recover plasma. The plasma was collected and stored at −80° C. until analysis.

beagle dogs [6] = conditions: glucose clamp, powder inhalation (FIG. 13a)
Procedure: The glucose clamp technique involved the continuous infusion of a 50% glucose solution at a rate such that normal serum glucose values were maintained throughout the experiment (e.g., normal range is 80-100 mg/dl).
Glucagon was also infused to maintain normal serum physiologic concentrations. […] Blood was withdrawn from an indwelling catheter over a 10-hour period.

[7] = 100 mM acetic acid
[8] = Quick release test of releasable PEG-insulin conjugate; assay type: physicochemical; conditions: 100 mM HEPES, pH 8.66, 50° C., approximately 24 hours; gel electrophoresis
Procedure: The pH was adjusted to 8.66 with 11.0 μL 2 M NaOH. Incubated solution at 50° C. for approximately 24 hours. […] This is slightly lower than the theoretical content of 22.5%. […] Peptide mapping was performed to determine which residue on insulin was modified. […] The purity of the conjugate was 91% mono-conjugate as determined by reverse phase HPLC.

[9] = dog, in vivo, inhaled or intranasal
[10] = dogs, IV, insulin 0.027, 2K 0.058, 5K 0.084 mg/dog, mean

Substance: di-N^αA1,N^εB29-(acetyl)-N^αB1-{3-[methoxy(ethoxy)5K]propionyl}insulin [PEG5000-B1 Di-acetylated insulin]
- T1/2 (beagle dogs [1]; dog, in vivo): about 15 HR
- T1/2, range across dogs (beagle dogs [1]; dog, in vivo): 6.6 to 51 h
- TMAX (beagle dogs [1]; dog, in vivo): about 2.5 HR
- Tmax, range across dogs (beagle dogs [1]; dog, in vivo): 1 to 8 h
- T1/2 (beagle dogs [1]; [9]): 15.045 h
- calculated IH bioavailability (beagle dogs [1]; [9]): about 36%
- duration of glucose suppression versus Insulin (beagle dogs [1]; dogs, IH): significantly increased
- Effect/mg Dosed (beagle dogs [1]; dogs, IH): 179
- Effect (Glucose Suppression AUEC) (beagle dogs [1]; dogs, IH): 358
- Cmin (minimum blood glucose concentration) (Sprague-Dawley rats [2]; 520 μg/animal (Table 7)): 58 ± 11 mg/dL
- Tmin (time to Cmin) (Sprague-Dawley rats [2]; 520 μg/animal (Table 7)): 7.1 ± 6.6 h
- time up to which blood glucose is still suppressed (not back to baseline) (Sprague-Dawley rats [2]; selected dose): at least 12 hrs
- % Collected as aerosol [3]: 98%^1
- T1/2 (beagle dogs [4]; beagle, dog, in vivo, iv): 0.755 h
- T1/2 (beagle dogs [4]; dog, in vivo, iv): about 0.76 HR
- TMAX (beagle dogs [4]; dog, in vivo, iv): 4.8 min
- central volume of distribution (Vc) (beagle dogs [4]; dog, in vivo, iv): about 115 mL/kg
- overall glucose suppression versus Insulin (beagle dogs [4]; dogs, IV): overall glucose suppressions were similar in terms of maximum suppression and duration of action
- dose adequate to reduce blood glucose to the target (40-60 mg/dl) (Sprague-Dawley rats [5]; insulin mass): 20 μg/rat
- group mean Cmin (blood glucose nadir), definitive leg (Sprague-Dawley rats [5]; 20 μg/rat (5K di-acetylated), 10 μg/rat (2K di-acetylated)): 54 mg/dL

Substance: Insulin: unmodified human insulin used as control and starting material [reference compound]
- duration for which glucose infusion was necessary (beagle dogs [6]): 300 min
- time of last quantifiable sample (beagle dogs [1]; dogs, IH, 0.34 mg/dog): 2 h
- Effect/mg Dosed (beagle dogs [1]; dogs, IH): 156
- Effect (Glucose Suppression AUEC) (beagle dogs [1]; dogs, IH): 53
- AUC0-LAST (beagle dogs [1]; dogs, IH, lung dose insulin 0.34, 2K 0.60, 5K 2.0 mg/dog, mean): 1.538 ng·h/mL
- CMAX (beagle dogs [1]; dogs, IH, lung dose insulin 0.34, 2K 0.60, 5K 2.0 mg/dog, mean, baseline corrected): 1.567 ng/mL
- calculated IH bioavailability (beagle dogs [1]; dogs, powder after the ET tube, relative to IV): about 6%
- solubility ([7]; pH 4): ~5000 µg/mL
- solubility ([7]; pH 4, listed as insulin): up to 5 mg/ml
- solubility ([7]; pH 5): less than 1 mg/ml
- AUC0-LAST (beagle dogs [4]; [10]): 1.822 ng·h/mL
- CMAX (beagle dogs [4]; [10]): 9.1 ng/mL
- CMAX (beagle dogs [4]; dogs, IV, insulin 0.027, 2K 0.058, 5K 0.084 mg/dog, mean, listed as INSULIN): 9.117 ng/mL

Substance: G2-PEG2-FMOC-NHS 40K insulin: Example 21: releasable mono-conjugate of insulin with G2-PEG2-FMOC-NHS 40K, site specific (B1)
- release of insulin from the PEG [8]: Complete release
